# Laboratory results published in the Human Domainome abundance scans (Beltran et al. 2025).
# ± gives the uncertainty stated by the source.
# B1: RNA-binding E3 ubiquitin-protein ligase MEX3C, residues 325 to 391; numbered along this chain, Q5U5Q3 (parent)
# chain: GQTTVQVRVPYRVVGLVVGPKGATIKRIQQQTHTYIVTPSRDKEPVFEVTGMPENVDRAREEIEMHI
# Variants of: B1
# Assay: abundance fitness (aPCA) (normalised: wild type 0, dead -1); higher = more abundant; growth selection in yeast, the domain comes from the species named
# Conditions: Homo sapiens
row,Variant,abundance fitness
1,GQTTVQVRVPYRVVGLVVGYKGATIKRIQQQTHTYIVTPSRDKEPVFEVTGMPENVDRAREEIEMHI,-0.266 ± 0.18
2,GQTTVQVRVPYRVVGLVVGLKGATIKRIQQQTHTYIVTPSRDKEPVFEVTGMPENVDRAREEIEMHI,-0.59 ± 0.094
3,GQTTVQVRVPYRVVGLVVGCKGATIKRIQQQTHTYIVTPSRDKEPVFEVTGMPENVDRAREEIEMHI,-0.444 ± 0.12
4,GQTTVQVRVPYRVVGLVVGKKGATIKRIQQQTHTYIVTPSRDKEPVFEVTGMPENVDRAREEIEMHI,-0.026 ± 0.057
5,GQTTVQVRVPYRVVGLVVGVKGATIKRIQQQTHTYIVTPSRDKEPVFEVTGMPENVDRAREEIEMHI,-0.449 ± 0.087
6,GQTTVQVRVPYRVVGLVVGRKGATIKRIQQQTHTYIVTPSRDKEPVFEVTGMPENVDRAREEIEMHI,-0.039 ± 0.05
7,GQTTVQVRVPYRVVGLVVGGKGATIKRIQQQTHTYIVTPSRDKEPVFEVTGMPENVDRAREEIEMHI,-0.717 ± 0.08
8,GQTTVQVRVPYRVVGLVVGMKGATIKRIQQQTHTYIVTPSRDKEPVFEVTGMPENVDRAREEIEMHI,-0.763 ± 0.17
9,GQTTVQVRVPYRVVGLVVGEKGATIKRIQQQTHTYIVTPSRDKEPVFEVTGMPENVDRAREEIEMHI,-0.139 ± 0.076
10,GQTTVQVRVPYRVVGLVVGWKGATIKRIQQQTHTYIVTPSRDKEPVFEVTGMPENVDRAREEIEMHI,-0.625 ± 0.11
11,GQTTVQVRVPYRVVGLVVGQKGATIKRIQQQTHTYIVTPSRDKEPVFEVTGMPENVDRAREEIEMHI,-0.15 ± 0.085
12,GQTTVQVRVPYRVVGLVVGIKGATIKRIQQQTHTYIVTPSRDKEPVFEVTGMPENVDRAREEIEMHI,0.051 ± 0.24
13,GQTTVQVRVPYRVVGLVVGTKGATIKRIQQQTHTYIVTPSRDKEPVFEVTGMPENVDRAREEIEMHI,-0.472 ± 0.11
14,GQTTVQVRVPYRVVGLVVGAKGATIKRIQQQTHTYIVTPSRDKEPVFEVTGMPENVDRAREEIEMHI,-0.381 ± 0.065
15,GQTTVQVRVPYRVVGLVVGSKGATIKRIQQQTHTYIVTPSRDKEPVFEVTGMPENVDRAREEIEMHI,-0.408 ± 0.078
16,GQTTVQVRVPYRVVGLVVGHKGATIKRIQQQTHTYIVTPSRDKEPVFEVTGMPENVDRAREEIEMHI,-0.123 ± 0.18
17,GQTTVQVRVPYRVVGLYVGPKGATIKRIQQQTHTYIVTPSRDKEPVFEVTGMPENVDRAREEIEMHI,-0.505 ± 0.11
18,GQTTVQVRVPYRVVGLVVGPMGATIKRIQQQTHTYIVTPSRDKEPVFEVTGMPENVDRAREEIEMHI,-0.031 ± 0.076
19,GQTTVQVRVPYRVVGLVVGPLGATIKRIQQQTHTYIVTPSRDKEPVFEVTGMPENVDRAREEIEMHI,-0.183 ± 0.061
20,GQTTVQVRVPYRVVGLVVGPSGATIKRIQQQTHTYIVTPSRDKEPVFEVTGMPENVDRAREEIEMHI,-0.233 ± 0.07

row,Variant,abundance fitness
1,GQTTVQVRVPYRVVGLVVGPTGATIKRIQQQTHTYIVTPSRDKEPVFEVTGMPENVDRAREEIEMHI,-0.596 ± 0.14
2,GQTTVQVRVPYRVVGLVVGPNGATIKRIQQQTHTYIVTPSRDKEPVFEVTGMPENVDRAREEIEMHI,-0.113 ± 0.12
3,GQTTVQVRVPYRVVGLVVGPIGATIKRIQQQTHTYIVTPSRDKEPVFEVTGMPENVDRAREEIEMHI,-0.53 ± 0.22
4,GQTTVQVRVPYRVVGLVVGPRGATIKRIQQQTHTYIVTPSRDKEPVFEVTGMPENVDRAREEIEMHI,-0.196 ± 0.05
5,GQTTVQVRVPYRVVGLVVGPHGATIKRIQQQTHTYIVTPSRDKEPVFEVTGMPENVDRAREEIEMHI,-0.273 ± 0.13
6,GQTTVQVRVPYRVVGLVVGPDGATIKRIQQQTHTYIVTPSRDKEPVFEVTGMPENVDRAREEIEMHI,-0.19 ± 0.1
7,GQTTVQVRVPYRVVGLVVGPEGATIKRIQQQTHTYIVTPSRDKEPVFEVTGMPENVDRAREEIEMHI,-0.099 ± 0.068
8,GQTTVQVRVPYRVVGLVVGPWGATIKRIQQQTHTYIVTPSRDKEPVFEVTGMPENVDRAREEIEMHI,-0.458 ± 0.093
9,GQTTVQVRVPYRVVGLVVGPPGATIKRIQQQTHTYIVTPSRDKEPVFEVTGMPENVDRAREEIEMHI,-0.884 ± 0.22
10,GQTTVQVRVPYRVVGLVVGPAGATIKRIQQQTHTYIVTPSRDKEPVFEVTGMPENVDRAREEIEMHI,-0.186 ± 0.063
11,GQTTVQVRVPYRVVGLVVGPCGATIKRIQQQTHTYIVTPSRDKEPVFEVTGMPENVDRAREEIEMHI,-0.247 ± 0.15
12,GQTTVQVRVPYRVVGLVVGPGGATIKRIQQQTHTYIVTPSRDKEPVFEVTGMPENVDRAREEIEMHI,-0.04 ± 0.046
13,GQTTVQVRVPYRVVGLVEGPKGATIKRIQQQTHTYIVTPSRDKEPVFEVTGMPENVDRAREEIEMHI,-0.284 ± 0.062
14,GQTTVQVRVPYRVVGLVWGPKGATIKRIQQQTHTYIVTPSRDKEPVFEVTGMPENVDRAREEIEMHI,-0.639 ± 0.13
15,GQTTVQVRVPYRVVGLVNGPKGATIKRIQQQTHTYIVTPSRDKEPVFEVTGMPENVDRAREEIEMHI,-0.305 ± 0.14
16,GQTTVQVRVPYRVVGLVAGPKGATIKRIQQQTHTYIVTPSRDKEPVFEVTGMPENVDRAREEIEMHI,-0.433 ± 0.08
17,GQTTVQVRVPYRVVGLVRGPKGATIKRIQQQTHTYIVTPSRDKEPVFEVTGMPENVDRAREEIEMHI,-0.508 ± 0.061
18,GQTTVQVRVPYRVVGLVFGPKGATIKRIQQQTHTYIVTPSRDKEPVFEVTGMPENVDRAREEIEMHI,-0.374 ± 0.13
19,GQTTVQVRVPYRVVGLVKGPKGATIKRIQQQTHTYIVTPSRDKEPVFEVTGMPENVDRAREEIEMHI,-0.541 ± 0.086
20,GQTTVQVRVPYRVVGLVDGPKGATIKRIQQQTHTYIVTPSRDKEPVFEVTGMPENVDRAREEIEMHI,-0.367 ± 0.13
